In patent US20100011462A1, “FLAVIN MONOOXYGENASES AND TRANSCRIPTION FACTORS INVOLVED IN GLUCOSINOLATE BIOSYNTHESIS” (University of Copenhagen, priority 2006, published 2010):
One block for each molecule: values may come before it.

Legend:
[1] = biological target: T1, At1g65860 (Arabidopsis thaliana, UniProt Q9SS04); assay: Enzymatic activity of heterologously expressed At1g65860 in E. coli spheroplasts; assay type: biochemical; settings: 1 hour at 30° C.; for oxygenation on the sulfur: tested as substrates at 0.1 mM, 1 mM and 10 mM
T1 construct: (AT1G65860) mRNA, complete cds; made in house; host or cells: E. coli TOP10, arabinose-induced pBAD-TOPO; crude spheroplast preparation, 50 ug total protein
T1 sequence (Q9SS04 1-459): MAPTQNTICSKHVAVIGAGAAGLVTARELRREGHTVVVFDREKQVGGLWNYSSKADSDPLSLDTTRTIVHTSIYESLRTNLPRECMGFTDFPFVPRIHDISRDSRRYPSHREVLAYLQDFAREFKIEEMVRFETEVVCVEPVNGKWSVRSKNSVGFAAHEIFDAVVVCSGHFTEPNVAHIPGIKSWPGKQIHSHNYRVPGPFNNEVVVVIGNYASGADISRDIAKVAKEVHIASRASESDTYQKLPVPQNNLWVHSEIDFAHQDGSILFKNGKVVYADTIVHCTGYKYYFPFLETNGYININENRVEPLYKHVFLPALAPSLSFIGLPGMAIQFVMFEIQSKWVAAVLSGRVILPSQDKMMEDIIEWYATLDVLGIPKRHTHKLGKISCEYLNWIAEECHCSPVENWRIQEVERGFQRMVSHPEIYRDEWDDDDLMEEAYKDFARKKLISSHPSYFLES
Protocol: FIG. 3—Enzymatic activity of heterologously expressed At1g65860 in E. coli spheroplasts using the arabinose inducible pBad TOPO® TA Expression system (Invitrogen). 50 μg total E. coli protein were used for each assay and allowed to proceed for 1 hour at 30° C. 4-methylsulfinylbutyl glucosinolate and desulfo-methylsulfinylbutyl glucosinolate production were quantified by HPLC (monitored at 229 nm). Compound identities were confirmed by comparison of both retention times, UV light absorption profiles and mass by LC/MS with those of authentic standards.
At1g65860 pBAD-TOPO constructs and a vector control (empty pBAD-TOPO) were transformed into the E. coli strain TOP10 (Invitrogen). Single colonies were grown overnight in Luria broth (LB) with 100 μg/ml ampicillin. One milliliter of the overnight culture was used to inoculate 100 ml of LB medium supplemented with 100 μg/ml ampicillin and the culture was grown at 37° C., 250 rpm to OD600=0.5, at which time arabinose (final conc. 0.02%) was added. The culture was grown at 28° C., 250 rpm for 16 h.
Following arabinose induction, spheroplasts of E. coli cells were prepared. The culture was chilled on ice, pelleted at 2500 g for 10 min, followed by resuspension by sequential addition of 8.3 ml 200 mM Tris/HCl, pH 7.6, 1.42 g sucrose, 16.7 μL […], 41.7 μL 0.1M phenylmethylsulfonyl fluoride, 33.3 μL lysozyme (50 mg/ml) and finally 8.31 mL ice-cold water with slow stirring. After 30 min incubation at 4° C. with slow stirring, 166 μL 1M Mg(OAc)2 was added and membranes were pelleted at 3000 g for 10 min at 4° C. Pellet was resuspended in 1800 μL 10 mM Tris/HCl pH 7.6/14 mM Mg(OAc)2/60 mM KOAc. The suspension was homogenized in a Potter-Elvehjem followed by the addition of 5 μL RNAse (10 mg/ml) and 5 μL DNAse (5 mg/ml) and slowly stirred for 30 min at 4° C. 235 μL 87% glycerol was added and the spheroplasts were stored at −80° C. for several weeks without loss of activity.
The 100 ul assay solution contained substrate and spheroplasts corresponding to 50 ug total E. coli protein in a 0.1 M Tricine at pH 7.9, 0.25 mM NADPH buffer. The reaction was allowed to proceed for 1 hour at 30° C. and terminated by the addition of 100 μL methanol and centrifuged at 5000 g for 2 min. The supernatant was moved to new tubes followed by lyophilization to dryness and finally redissolved in 50 μL water.
4-methylthiobutyl glucosinolate and desulfo 4-methylthiobutyl glucosinolate were used as substrates with final concentrations in the assay as given in FIG. 3. 4-methylthiobutyl oxime, dihomomethionine, methionine were tested as substrates at 0.1 mM, 1 mM and 10 mM final concentrations. […]

[2] = Activity of FMOs of the invention in E. coli or in seeds using a variety of substrates; assay type: biochemical, Arabidopsis thaliana; settings: for S-oxygenation activity: desulfo and intact glucosinolates; for substrate specificity: methylthio glucosinolates in Arabidopsis
Excerpt: FIG. 11—Heterologous expression of At1g62560 in E. coli using 4MTB as substrate, with an empty vector as control.
FIG. 13—Heterologous expression of At1g62540 in E. coli using 4MTB as substrate, with an empty vector as control.
FIG. 15—Heterologous expression of At1g12140 in E. coli using desulfo-glucosinolates from glucosinolates from Arabidopsis Col-0 seeds as substrate mix.
FIG. 17—Heterologous expression of At1g62570 in E. coli using desulfo-glucosinolates from glucosinolates from Arabidopsis Col-0 seeds as substrate mix, with an empty vector as control.
FIGS. 11-18 show the activity of At1g62560, At1g65860, At1g62540, At1g12140 and At1g62570 in E. coli or in seeds using a variety of substrates.

Molecule: CSCCCC/C=N\O [4-methylthiobutyl oxime]
oxygenation on the sulfur [1]: No oxygenation on the sulfur

B1: At1g12140: flavin-containing monooxygenase (FMO) from A. thaliana, SEQ ID NO 10 (protein, listed as Arabidopsis thaliana)
chain: MAPARTRVNSLNVAVIGAGAAGLVAARELRRENHTVVVFERDSKVGGLWVYTPNSEPDPLSLDPNRTIVHSSVYDSLRTNLPRECMGYRDFPFVPRPEDDESRDSRRYPSHREVLAYLEDFAREFKLVEMVRFKTEVVLVEPEDKKWRVQSKNSDGISKDEIFDAVVVCNGHYTEPRVAHVPGIDSWPGKQIHSHNYRVPDQFKDQVVVVIGNFASGADISRDITGVAKEVHIASRSNPSKTYSKLPGSNNLWLHSMIESVHEDGTIVFQNGKVVQADTIVHCTGYKYHFPFLNTNGYITVEDNCVGPLYEHVFPPALAPGLSFIGLPWMTLQFFMFELQSKWVAAALSGRVTLPSEEKMMEDVTAYYAKREAFGQPKRYTHRLGGGQVDYLNWIAEQIGAPPGEQWRYQEINGGYYRLATQSDTFRDKWDDDHLIVEAYEDFLRQKLISSLPSQLLES
S-oxygenation activity [2]: S-oxygenation activity
substrate specificity [2]: mainly converts long-chain (especially octyl)methylthioalkyl-into methylsulfinyl glucosinolates

B2: At1g62540: flavin-containing monooxygenase (FMO) from A. thaliana, SEQ ID NO 8 (protein, listed as Arabidopsis thaliana)
chain: MAPAQNPISSQHVVVIGAGAAGLVAARELSREGHTVVVLEREKEVGGLWIYSPKAESDPLSLDPTRSIVHSSVYESLRTNLPRECMGFTDFPFVPRFDDESRDSRRYPSHMEVLAYLQDFAREFNLEEMVRFEIEVVRVEPVNGKWRVWSKTSGGVSHDEIFDAVVVCSGHYTEPNVAHIPGIKSWPGKQIHSHNYRVPGPFENEVVVVIGNFASGADISRDIAKVAKEVHIASRASEFDTYEKLPVPRNNLWIHSEIDTAYEDGSIVFKNGKVVYADSIVYCTGYKYRFTFLETNGYMNIDENRVEHLYKHVFPPALSPGLSFVGLPSMGIQFVMFEIQSKWVAAVLSRRVTLPTEDKMMEDISAWYASLDAVGIPKRYTHKLGKIQSEYLNWVAEECGCPLVEHWRNQQIVRGYQRLVSHPETYRDEWDDNDLMEEAYEDFARKKLISFHPSHIL
S-oxygenation activity [2]: S-oxygenation activity
substrate specificity [2]: broad specificity towards all methylthio (MT) glucosinolates

B3: At1g62570: flavin-containing monooxygenase (FMO) from A. thaliana, SEQ ID NO 6 (protein, listed as Arabidopsis thaliana)
chain: MAPAPSPINSQHVAVIGAGAAGLVAARELRREGHTVVVLDREKQVGGLWVYTPETESDELGLDPTRPIVHSSVYKSLRTNLPRECMGYKDFPFVPRGDDPSRDSRRYPSHREVLAYLQDFATEFNIEEMIRFETEVLRVEPVNGKWRVQSKTGGGFSNDEIYDAVVMCCGHFAEPNIAQIPGIESWPGRQTHSHSYRVPDPFKDEVVVVIGNFASGADISRDISKVAKEVHIASRASKSNTFEKRPVPNNNLWMHSEIDTAHEDGTIVFKNGKVVHADTIVHCTGYKYYFPFLETNNYMRVDDNRVEPLYKHIFPPALAPGLSFIGLPAMGLQFYMFEVQSKWVAAVLSGRVTLPSVDEMMDDLKLSYETQEALGIPKRYTHKLGKSQCEYLDWIADLCGFPHVEHWRDQEVTRGYQRLGNQPETFRDEWDDDDLMEEAYEDFARLNLINFHPSRFLESGR
S-oxygenation activity [2]: S-oxygenation activity
substrate specificity [2]: broad specificity towards all methylthio (MT) glucosinolates

Results, then the molecule that gave them:

oxygenation on the sulfur [1]: No oxygenation on the sulfur
Molecule: CSCCCCC(N)C(=O)O (stereo not shown) [dihomomethionine]

production of 4MSB from 4MTB ([1]; 50 μg total E. coli protein, HPLC 229 nm): production of 4MSB from 4MTB
Molecule: CSCCCC/C(=N/OS(=O)(=O)O)S[C@@H]1O[C@H](CO)[C@@H](O)[C@H](O)[C@H]1O [4MTB, 4-methylthiobutyl glucosinolate]

oxygenation on the sulfur [1]: No oxygenation on the sulfur
Molecule: CSCC[C@H](N)C(=O)O [methionine]
